One data set has as its system OsICYP81A6. The data set can be described thus: Yeast expression system, saflufenacil metabolism (LC/MS/MS). It is filed as in vitro ADME, rice. The text has this:
Rice cytochrome P450 81A6 was cloned into pESC-His yeast expression vector (Stratagene) using BamHI and SalI. Constructs were transformed into YPH500 yeast strain (Stratagene) using a Yeast Maker Transformation System from Clontech. Positive clones were selected on SD-agar plates (0.7% yeast nitrogen base without amino acids, 2% glucose, 0.13% amino acid drop-out without histidine; plates solidified with 2% agar). Bioconversion of substrates was directly assayed in yeast cells expressing the respective cytochrome P450 gene. Cells were induced in SG-His medium (same composition as SD but with galactose instead of glucose) for 18-24 h (Pompon et al., Methods in Enzymology 272:51-64 (1996); Urban et al., Eur. J. Biochem. 222:[…] (1994)). Afterwards, the BAS800H substrate was added and samples were incubated for an additional 24 h. Samples were analyzed by LC/MS/MS.

For another data set, the system named is Sb01g007420.1. Described as above. It is filed as in vitro ADME, sorghum. The note with it: yeast cells expressing Sb01g007420.1, 24 h incubation.
The test system of data set [1] is maize, rice, and soybean transgenic systems. As to the kind of experiment: Saflufenacil tolerance in transgenic plant systems (FIG. 3 legend). It is filed as in vivo. To be noted: in one or more transgenic plant systems.
The next data set concerns T0 soybean cuttings. As to the kind of experiment: Soybean T0 cuttings saflufenacil spray test. It is filed as in vivo, Soybean cv Williams 82. To be noted: 0, 25, or 50 g ai/ha saflufenacil + 1% MSO; evaluated 7 days after treatment. The procedure: Soybean cv Williams 82 was transformed as previously described by Siminszky et al., Phytochem Rev. 5:445-458 (2006). After regeneration, transformants were transplanted to soil in small pots, placed in growth chambers (16 hr day/8 hr night; 25° C. day/23° C. night; 65% relative humidity; 130-150 μE m^−2 s^−1) and subsequently tested for the presence of the T-DNA via Taqman analysis. After a few weeks, healthy, transgenic positive, single copy events were transplanted to larger pots and allowed to grow in the growth chamber. An optimal shoot for cutting was about 3-4″ tall, with at least two nodes present. Each cutting was taken from the original transformant (mother plant) and dipped into rooting hormone powder (indole-3-butyric acid, IBA). The cutting was then placed in oasis wedges inside a bio-dome. The mother plant was taken to maturity in the greenhouse and harvested for seed. Wild type cuttings were also taken simultaneously to serve as negative controls. The cuttings were kept in the bio-dome for 5-7 days and then transplanted to 3″ pots and then acclimated in the growth chamber for two more days. Subsequently, the cuttings were transferred to the greenhouse, acclimated for approximately 4 days, and then subjected to spray tests containing 0, 25, and 50 g ai/ha saflufenacil plus 1% MSO. Herbicide injury evaluations were taken at 7 days after treatment.

A further data set concerns transgenic maize plants. As to the kind of experiment: Maize whole plant saflufenacil spray test (T0 and T1). It is filed as in vivo. The note with it: 240 g ai/ha saflufenacil + 1% MSO at 2-4 leaf stage; rated 7 and 14 days after application. The procedure: Immature Embryo Transformation: Immature embryos were transformed according to the procedure outlined in WO2006/136596 to Peng et al. The exception was that a proportion of the embryos—25 in most cases—were placed on media containing saflufenacil and kept in the light for direct selection. The remaining embryos in each experiment were selected on Pursuit as described. Plants were tested utilizing Taqman analysis with the target being the nos terminator which is present in all constructs. Healthy looking plants were sent to the greenhouse for hardening out and subsequent spray testing. As with the BMS cells, RCB958 was utilized as a control both for transformation, saflufenacil selection, and for spray testing.
A total of 82 transgenic maize plants (2 constructs of interest and 1 control construct) were delivered to the greenhouse in tissue culture. The plants were individually transplanted into MetroMix 360 soil in 4″ pots. […]
Sixteen vectors harboring different P450 genes were tested for the ability to increase tolerance to saflufenacil in T0 maize plants. […] Injury rating was evaluated 7 and 14 days after application. FIG. 5 indicates the number of plants from each segregating event that were evaluated and scored for herbicidal injury.

With `CC(C)N(C)S(=O)(=O)NC(=O)c1cc(-n2c(=O)cc(C(F)(F)F)n(C)c2=O)c(F)cc1Cl` [BAS800H, 2-chloro-5-[3,6-dihydro-3-methyl-2,6-dioxo-4-(trifluoromethyl)-1(2H)-pyrimidinyl]-4-fluoro-N-[[methyl(1-methylethyl)amino]sulfonyl]benzamide], the “initial content of BAS800H converted into several metabolites” value in the data set on OsICYP81A6 (after 24 h incubation in P450-expressing yeast, enzyme not specified (OsICYP81A6 and Sb01g007420.1 named)) was determined as 10%. In addition, the “degradation of BAS800H” value with OsICYP81A6 (yeast cells expressing OsICYP81A6, 24 h incubation) was “catalyzed degradation”; in the data set with Sb01g007420.1 it was “catalyzed degradation”.

B1: OsCYP72A15: rice cytochrome P450 CYP72A15 gene/polypeptide, amino acid sequence SEQ ID NO:7 (protein, listed as Oryza sativa)
chain: MLMMLGAASQWILAAAAAAAVAALLWLAVSTLEWAWWTPRRLERALRAQGIRGNRYRLFTGDVPENVRLNREARKKPLPLGCHDIIPRVLPMFSKAVEEHGKPSFTWFGPTPRVMISDPESIREVMSNKFGHYGKPKPTRLGKLLASGVVSYEGEKWAKHRRILNPAFHHEKIKRMLPVFSNCCTEMVTRWENSMSIEGMSEVDVWPEFQNLTGDVISKTAFGSSYEEGRRIFQLQAESAERIIQAFRTIFIPGYWFLPTKNNRRLREIEREVSKLLRGIIGKRERAIKNGETSNGDLLGLLVESNMRESNGKAELGMTTDEIIEECKLFYFAGMETTSVLLTWTLIVLSMHPEWQERAREEVLHHFGRTTPDYDSLSRLKIVTMILYEVLRLYPPVVFLTRRTYKEMELGGIKYPAEVTLMLPILFIHHDPDIWGKDAGEFNPGRFADGISNATKYQTSFFPFGWGPRICIGQNFALLEAKMAICTILQRFSFELSPSYIHAPFTVITLHPQHGAQIKLKKI
B1: the “conferred tolerance to saflufenacil” value in data set [1] was “conferred tolerance”.

B2: ZmNSF1: corn NSF1 cytochrome P450 gene/polypeptide, amino acid sequence SEQ ID NO:3 (protein)
chain: MDKAYIAALSAAALFLLHYLLGRRAGGEGKAKAKGSRRRLPPSPPAIPFLGHLHLVKAPFHGALARLAARHGPVFSMRLGTRRAVVVSSPDCARECFTEHDVNFANRPLFPSMRLASFDGAMLSVSSYGPYWRNLRRVAAVQLLSAHRVGCMAPAIEAQVRAMVRRMDRAAAAGGGGVARVQLKRRLFELSLSVLMETIAHTKTSRAEADADSDMSTEAHEFKQIVDELVPYIGTANRWDYLPVLRWFDVFGVRNKILDAVGRRDAFLGRLIDGERRRLDAGDESESKSMIAVLLTLQKSEPEVYTDTVITALCANLFGAGTETTSTTTEWAMSLLLNHREALKKAQAEIDAAVGTSRLVTADDVPHLTYLQCIVDETLRLHPAAPLLLPHESAADCTVGGYDVPRGTMLLVNVHAVHRDPAVWEDPDRFVPERFEGAGGKAEGRLLMPFGMGRRKCPGETLALRTVGLVLATLLQCFDWDTVDGAQVDMKASGGLTMPRAVPLEAMCRPRTAMRGVLKRL
modifications: Zea mays
As for B2, the “conferred tolerance to saflufenacil” value in data set [1] is “conferred tolerance”. For the same molecule, the “level of tolerance to saflufenacil in T0 soybean cuttings” value in the data set with T0 soybean cuttings is on record as “greatest level of tolerance”.

B3: OsICYP81 A: CYP450 gene/polypeptide OsICYP81A6, amino acid sequence SEQ ID NO:29 (protein, listed as Oryza sativa)
chain: MDNAYIIAILSVAILFLLHYYLLGRGNGGAARLPPGPPAVPILGHLHLVKKPMHATMSRLAERYGPVFSLRLGSRRAVVVSSPGCARECFTEHDVTFANRPRFESQLLVSFNGAALATASYGAHWRNLRRIVAVQLLSAHRVGLMSGLIAGEVRAMVRRMYRAAAASPAGAARIQLKRRLFEVSLSVLMETIAHTKATRPETDPDTDMSVEAQEFKQVVDEIIPHIGAANLWDYLPALRWFDVFGVRRKILAAVSRRDAFLRRLIDAERRRLDDGDEGEKKSMIAVLLTLQKTEPEVYTDNMITALTANLFGAGTETTSTTSEWAMSLLLNHPDTLKKAQAEIDASVGNSRLITADDVTRLGYLQCIVRETLRLYPAAPMLLPHESSADCKVGGYNIPRGSMLLINAYAIHRDPAVWEEPEKFMPERFEDGGCDGNLLMPFGMGRRRCPGETLALRTVGLVLGTLIQCFDWERVDGVEVDMTEGGGLTIPKVVPLEAMCRPRDAMGGVLRELV
For the molecule B3, in the data set with transgenic maize plants, the “tolerance of segregating T1 maize events (reduced injury scores vs J553 wild type)” value is “increased tolerance”.

B4: OsjCYP81A6: rice cytochrome P450 CYP81A6 gene/polypeptide, amino acid sequence SEQ ID NO:1 (protein, listed as Oryza sativa)
chain: MAFLGWAVDIARDSGASSSVVLTCDGYGSALYFSPWDSVPLPATASPDDGFLLPRFPDVCVQRSQFTNHLAPANGTGGGGSRTGVKEEASEVLSWPPTSKQSVRRLEVAEHWYRLYKTDNQRLSPDSQQVSVLAESHCDLASGNWKEISIHHKKMPSSTTTKTTTPSRDAWIVSARSDPFHLLLEAQAPLGIKADALSQIAAVHQSHRNTSHIRELSLAMDNAYIIAILSVAILFLLHYYLLGRGNGGAARLPPGPPAVPILGHLHLVKKPMHATMSRLAERYGPVFSLRLGSRRAVVVSSPGCARECFTEHDVTFANRPRFESQLLVSFNGAALATASYGAHWRNLRRIVAVQLLSAHRVGLMSGLIAGEVRAMVRRMYRAAAASPAGAARIQLKRRLFEVSLSVLMETIAHTKATRPETDPDTDMSVEAQEFKQVVDEIIPHIGAANLWDYLPALRWFDVFGVRRKILAAVSRRDAFLRRLIDAERRRLDDGDEGEKKSMIAVLLTLQKTEPEVYTDNMITALTANLFGAGTETTSTTSEWAMSLLLNHPDTLKKAQAEIDASVGNSRLITADDVTRLGYLQCIVRETLRLYPAAPMLLPHESSADCKVGGYNIPRGSMLLINAYAIHRDPAVWEEPEKFMPERFEDGGCDGNLLMPFGMGRRRCPGETLALRTVGLVLGTLIQCFDWERVDGVEVDMTEGGGLTIPKVVPLEAMCRPRDAMGGVLRELV
Turning to B4, the “tolerance of segregating T1 maize events (reduced injury scores vs J553 wild type)” value with transgenic maize plants was “increased tolerance”. Besides, the “level of tolerance to saflufenacil in T0 soybean cuttings” value in the data set with T0 soybean cuttings is recorded as “greatest level of tolerance”.
